This is an account of results in the supplement of paper PMC5998384.

Data set [1] relates to HeLa Kyoto. Put plainly: solubility in G1/S (NP-40 vs SDS abundance) (log2 ratio); higher = more soluble. As to conditions: cell cycle stage: G1/S.
Data set [2] has as its system HeLa Kyoto. Put plainly: melting temperature (median over replicates), in situ; higher = more thermally stable.
For data set [3], the system named is HeLa Kyoto. Put plainly: solubility change mitosis vs G1/S (difference of NP-40 vs SDS log2 ratios) (log2 ratio difference); higher = more soluble in mitosis.
Data set [4] has as its system HeLa Kyoto. Description: thermal stability score vs G1/S (z-score of summed log2 fold changes over temperatures); higher = more thermally stable than in G1/S.
The mark [5] stands for this setting: cell cycle stage: early G1 (4.5 h after nocodazole release).
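Wherever melting temperature (median over replicates), in situ is given: HeLa Kyoto cells synchronized by double thymidine or nocodazole block, proteins quantified by TMT10plex mass spectrometry, three independent biological replicates.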
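Wherever solubility change mitosis vs G1/S (difference of NP-40 vs SDS log2 ratios) is given: synchronized HeLa Kyoto cells (double thymidine block for G1/S, nocodazole release for mitosis), protein amounts in NP-40 versus SDS lysates quantified by mass spectrometry, three biological replicates.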
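Wherever solubility in G1/S (NP-40 vs SDS abundance) is given: HeLa Kyoto cells arrested at G1/S by double thymidine block, proteins quantified by TMT10plex mass spectrometry in mild NP-40 versus SDS extracts, three biological replicates.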
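Wherever thermal stability score vs G1/S (z-score of summed log2 fold changes over temperatures) is given: synchronized HeLa Kyoto cells, proteins quantified by TMT10plex mass spectrometry, three biological replicates, mitosis taken 0.5 h after nocodazole release, G1/S directly after double thymidine block.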

On to “MDRRSMGETESGDAFLDLKKPPASKCPHRYTKEELLDIKELPHSKQRPSCLSEKYDSDGVWDPEKWHASLYPASGRSSPVESLKKELDTDRPSLVRRIVDPRERVKEDDLDVVLSPQRRSFGGGCHVTAAVSSRRSGSPLEKDSDGLRLLGGRRIGSGRIISARTFEKDHRLSDKDLRDLRDRDRERDFKDKRFRREFGDSKRVFGERRRNDSYTEEEPEWFSAGPTSQSETIELTGFDDKILEEDHKGRKRTRRRTASVKEGIVECNGGVAEEDEVEVILAQEPAADQEVPRDAVLPEQSPGDFDFNEFFNLDKVPCLASMIEDVLGEGSVSASRFSRWFSNPSRSGSRSSSLGSTPHEELERLAGLEQAILSPGQNSGNYFAPIPLEDHAENKVDILEMLQKAKVDLKPLLSSLSANKEKLKESSHSGVVLSVEEVEAGLKGLKVDQQVKNSTPFMAEHLEETLSAVTNNRQLKKDGDMTAFNKLVSTMKASGTLPSQPKVSRNLESHLMSPAEIPGQPVPKNILQELLGQPVQRPASSNLLSGLMGSLEPTTSLLGQRAPSPPLSQVFQTRAASADYLRPRIPSPIGFTPGPQQLLGDPFQGMRKPMSPITAQMSQLELQQAALEGLALPHDLAVQAANFYQPGFGKPQVDRTRDGFRNRQQRVTKSPAPVHRGNSSSPAPAASITSMLSPSFTPTSVIRKMYESKEKSKEEPASGKAALGDSKEDTQKASEENLLSSSSVPSADRDSSPTTNSKLSALQRSSCSTPLSQANRYTKEQDYRPKATGRKTPTLASPVPTTPFLRPVHQVPLVPHVPMVRPAHQLHPGLVQRMLAQGVHPQHLPSLLQTGVLPPGMDLSHLQGISGPILGQPFYPLPAASHPLLNPRPGTPLHLAMVQQQLQRSVLHPPGSGSHAAAVSVQTTPQNVPSRSGLPHMHSQLEHRPSQRSSSPVGLAKWFGSDVLQQPLPSMPAKVISVDELEYRQ [EIF4ENIF1]”, for which the “solubility in G1/S (log2)” value with HeLa Kyoto [1] was 0.0256. For the same sequence, the melting temperature with HeLa Kyoto [2] (cell cycle stage: G1/S) was found to be 50.3 °C; with HeLa Kyoto [2] (cell cycle stage: mitosis) it was 49.3 °C. The “solubility change mitosis (log2)” value with HeLa Kyoto [3] was 0.0657. Also, the thermal stability score in the data set with HeLa Kyoto [4] (setting [5]) is -0.104; with HeLa Kyoto [4] (cell cycle stage: mitosis), 0.531.

Regarding “MDSLEEPQKKVFKARKTMRVSDRQQLEAVYKVKEELLKTDVKLLNGNHENGDLDPTSPLENMDYIKDKEEVNGIEEICFDPEGSKAEWKETPCILSVNVKNKQDDDLNCEPLSPHNITPEPVSKLPAEPVSGDPAPGDLDAGDPASGVLASGDSTSGDPTSSEPSSSDAASGDATSGDAPSGDVSPGDATSGDATADDLSSGDPTSSDPIPGEPVPVEPISGDCAADDIASSEITSVDLASGAPASTDPASDDLASGDLSSSELASDDLATGELASDELTSESTFDRTFEPKSVPVCEPVPEIDNIEPSSNKDDDFLEKNGADEKLEQIQSKDSLDEKNKADNNIDANEETLETDDTTICSDRPPENEKKVEEDIITELALGEDAISSSMEIDQGEKNEDETSADLVETINENVIEDNKSENILENTDSMETDEIIPILEKLAPSEDELTCFSKTSLLPIDETNPDLEEKMESSFGSPSKQESSESLPKEAFLVLSDEEDISGEKDESEVISQNETCSPAEVESNEKDNKPEEEEQVIHEDDERPSEKNEFSRRKRSKSEDMDNVQSKRRRYMEEEYEAEFQVKITAKGDINQKLQKVIQWLLEEKLCALQCAVFDKTLAELKTRVEKIECNKRHKTVLTELQAKIARLTKRFEAAKEDLKKRHEHPPNPPVSPGKTVNDVNSNNNMSYRNAGTVRQMLESKRNVSESAPPSFQTPVNTVSSTNLVTPPAVVSSQPKLQTPVTSGSLTATSVLPAPNTATVVATTQVPSGNPQPTISLQPLPVILHVPVAVSSQPQLLQSHPGTLVTNQPSGNVEFISVQSPPTVSGLTKNPVSLPSLPNPTKPNNVPSVPSPSIQRNPTASAAPLGTTLAVQAVPTAHSIVQATRTSLPTVGPSGLYSPSTNRGPIQMKIPISAFSTSSAAEQNSNTTPRIENQTNKTIDASVSKKAADSTSQCGKATGSDSSGVIDLTMDDEESGASQDPKKLNHTPVSTMSSSQPVSRPLQPIQPAPPLQPSGVPTSGPSQTTIHLLPTAPTTVNVTHRPVTQVTTRLPVPRAPANHQVVYTTLPAPPAQAPLRGTVMQAPAVRQVNPQNSVTVRVPQTTTYVVNNGLTLGSTGPQLTVHHRPPQVHTEPPRPVHPAPLPEAPQPQRLPPEAASTSLPQKPHLKLARVQSQNGIVLSWSVLEVDRSCATVDSYHLYAYHEEPSATVPSQWKKIGEVKALPLPMACTLTQFVSGSKYYFAVRAKDIYGRFGPFCDPQSTDVISSTQSS [ATF7IP]”, the “solubility in G1/S (log2)” value in the data set with HeLa Kyoto [1] is 0.0405. The results for the melting temperature in the data set on HeLa Kyoto [2] (cell cycle stage: G1/S) and in the data set with HeLa Kyoto [2] (cell cycle stage: mitosis) were 49 °C and 49.8 °C, respectively. Also, in the data set on HeLa Kyoto [3], the “solubility change mitosis (log2)” value is -0.146. Besides, the thermal stability score was 0.103 in the data set on HeLa Kyoto [4] (setting [5]) and 1.25 in the data set on HeLa Kyoto [4] (cell cycle stage: mitosis).

In the case of “MDSNTAPLGPSCPQPPPAPQPQARSRLNATASLEQERSERPRAPGPQAGPGPGVRDAAAPAEPQAQHTRSRERADGTGPTKGDMEIPFEEVLERAKAGDPKAQTEVGKHYLQLAGDTDEELNSCTAVDWLVLAAKQGRREAVKLLRRCLADRRGITSENEREVRQLSSETDLERAVRKAALVMYWKLNPKKKKQVAVAELLENVGQVNEHDGGAQPGPVPKSLQKQRRMLERLVSSESKNYIALDDFVEITKKYAKGVIPSSLFLQDDEDDDELAGKSPEDLPLRLKVVKYPLHAIMEIKEYLIDMASRAGMHWLSTIIPTHHINALIFFFIVSNLTIDFFAFFIPLVIFYLSFISMVICTLKVFQDSKAWENFRTLTDLLLRFEPNLDVEQAEVNFGWNHLEPYAHFLLSVFFVIFSFPIASKDCIPCSELAVITGFFTVTSYLSLSTHAEPYTRRALATEVTAGLLSLLPSMPLNWPYLKVLGQTFITVPVGHLVVLNVSVPCLLYVYLLYLFFRMAQLRNFKGTYCYLVPYLVCFMWCELSVVILLESTGLGLLRASIGYFLFLFALPILVAGLALVGVLQFARWFTSLELTKIAVTVAVCSVPLLLRWWTKASFSVVGMVKSLTRSSMVKLILVWLTAIVLFCWFYVYRSEGMKVYNSTLTWQQYGALCGPRAWKETNMARTQILCSHLEGHRVTWTGRFKYVRVTDIDNSAESAINMLPFFIGDWMRCLYGEAYPACSPGNTSTAEEELCRLKLLAKHPCHIKKFDRYKFEITVGMPFSSGADGSRSREEDDVTKDIVLRASSEFKSVLLSLRQGSLIEFSTILEGRLGSKWPVFELKAISCLNCMAQLSPTRRHVKIEHDWRSTVHGAVKFAFDFFFFPFLSAA [WFS1]”, the “solubility in G1/S (log2)” value in the data set on HeLa Kyoto [1] worked out at 0.109. For the same sequence, the melting temperature is 51.7 °C with HeLa Kyoto [2] (cell cycle stage: G1/S) and 52.2 °C in the data set with HeLa Kyoto [2] (cell cycle stage: mitosis). Besides, the “solubility change mitosis (log2)” value in the data set with HeLa Kyoto [3] is -0.183. The values for the thermal stability score in the data set on HeLa Kyoto [4] (setting [5]) and in the data set on HeLa Kyoto [4] (cell cycle stage: mitosis) were 2.34 and 3.05, respectively.
